Reference: patent publication US12685781B2, “Anti-HER3 antibody-drug conjugate” (DAIICHI SANKYO COMPANY, LIMITED, priority 2014, dated 2026)

Tests used:
[1] = system: human melanoma cell line HT-144; test: Antitumor test, human melanoma HT-144 in NMRI nude mice; type: in vivo, mouse; conditions: 25 mg/kg subcutaneously twice a week
Protocol: Five- to 6-week-old female NMRI nude mice having a body weight of 22 to 26 g after acclimation were used. The mice were placed in individually ventilated cages (IVC, 4 mice at maximum per cage) which were kept at room temperature and a constant humidity. After randomization, the body weights of the mice were measured every other day, and the behaviors of the animals were recorded every day.
5×10^6 cells of a human melanoma cell line HT-144 (HTB-63) from ATCC were suspended in a solution prepared from 50 uL of PBS and Matrigel (PBS: PAA #H21-002, Matrigel: BD #354230) mixed at a ratio of 1:1, and subcutaneously transplanted to the right side area of the body of each NMRI nude mouse using a 29 G needle.
The measurement of the body weights and the tumor sizes and the measurement and calculation of the tumor volumes were carried out in the same manner as Test Example 6.
At Day 22 when the tumor size reached about 150 mm^3, 80 animals were randomly divided into 8 groups on the basis of their tumor sizes. At the same day, U1-59 or the antibody-drug conjugate (3), (10), or (13) or PBS for a control group were administered into the tail vein of each animal at the following doses.
Administration group: PBS was intravenously injected once a week at the same dose as the antibody-drug conjugate.
Administration group: U1-59 was subcutaneously injected twice a week at 25 mg/kg. […]

[2] = target: HER3 (Homo sapiens, UniProt P21860); test: Inhibition of HER3 signal, Western blotting in A549 cells; type: cell-based
Protocol: A human lung cancer cell line A549 (CRS-300114) from Cell Lines Service was dissociated by trypsin treatment, and 50,000 living cells were inoculated to 3 mL of DMEM/F12 (Invitrogen Corp., #21331-020)+10% FBS (Invitrogen Corp., #10270-106) in each of 6 wells. After culturing the cells for 3 days, the medium was replaced with 2 mL of a fresh medium.
The antibody or each antibody-drug conjugate was added directly to 2 mL of a medium in each of the 6 wells such that the final concentration was 10 ug/mL (20 uL of a stock solution of 1 ug/uL antibody or antibody-drug conjugate was added).
U1-59, the antibody-drug conjugate (3), the antibody-drug conjugate (10), or the antibody-drug conjugate (13) was used as the antibody or the antibody-drug conjugate. An untreated group was used as a control.
The cells were cultured for 2 days, washed once with PBS, and treated with 100 uL of an ice-cooled buffer (50 mM 4-(2-hydroxyethyl)-1-piperazineethanesulfonic acid (HEPES), pH 7.5, 150 mM sodium chloride, 1 mM ethylenediaminetetraacetic acid (EDTA), 12.5% glycerin, 1% Triton X-100, and 10 mM sodium pyrophosphate tetrabasic supplemented with proteinase inhibitors (Roche Diagnostics, Inc., #11697 498 001), 10 mM sodium fluoride, 1 mM sodium vanadate, 1 mM phenyl-methane-sulfonyl-fluoride (PMSF), and 10 ug/mL aprotinin (Sigma-Aldrich Co. LLC, A1153)) for 30 minutes at 4 C for lysis. […]

HER3 phosphorylation compared with untreated cells ([2]; A549, 10 ug/mL, 2 days): reduced
Substance: U1-59: anti-HER3 human antibody; heavy and light chain variable regions SEQ ID NOs: 70 and 72; produced per WO 2007/077028
day after transplantation at which group was euthanized because tumor sizes exceeded acceptable maximum level [1]: 52 days
HER3 expression compared with untreated cells ([2]; A549, 2 days): reduction in HER3 expression was also observed
